Measured values: article PMC6549176, “SAGA DUBm-mediated surveillance regulates prompt export of stress-inducible transcripts for proteostasis” (Nature Communications, 2019)

Molecular target: T1, recombinant Sgf73p (MBP-Sgf73p) (S. cerevisiae, UniProt P53165 1-657)
T1 construct: Sgf73p of the SAGA DUBm, S. cerevisiae; source: recombinant
T1 sequence (looked up): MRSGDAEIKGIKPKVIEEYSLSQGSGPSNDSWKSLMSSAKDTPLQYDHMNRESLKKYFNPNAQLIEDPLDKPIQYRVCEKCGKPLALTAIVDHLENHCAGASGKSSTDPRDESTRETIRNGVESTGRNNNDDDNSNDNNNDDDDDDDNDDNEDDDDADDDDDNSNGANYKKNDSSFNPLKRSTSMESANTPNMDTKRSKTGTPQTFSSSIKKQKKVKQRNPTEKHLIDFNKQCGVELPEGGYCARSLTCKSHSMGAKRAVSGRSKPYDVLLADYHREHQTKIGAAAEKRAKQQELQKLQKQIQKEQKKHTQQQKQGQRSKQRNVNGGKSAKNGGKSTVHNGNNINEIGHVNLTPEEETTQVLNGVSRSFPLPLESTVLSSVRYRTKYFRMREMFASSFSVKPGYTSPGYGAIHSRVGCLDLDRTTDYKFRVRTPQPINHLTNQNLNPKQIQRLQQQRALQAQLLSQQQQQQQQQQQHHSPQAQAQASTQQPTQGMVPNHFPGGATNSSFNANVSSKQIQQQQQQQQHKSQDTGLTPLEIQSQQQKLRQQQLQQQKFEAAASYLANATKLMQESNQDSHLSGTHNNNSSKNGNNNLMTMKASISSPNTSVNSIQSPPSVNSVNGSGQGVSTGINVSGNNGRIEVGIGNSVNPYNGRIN
Assay: pull-down; GST-tagged Yra1p or its subfragments as bait (1 µg) on beads, 200 ng target protein; 50 mM HEPES-KOH pH 7.5, 150 mM NaCl, 10% glycerol, 0.1% NP40, 0.5 mM DTT, 1 mM EDTA; 4 °C, 2 h; Western blotting
Conditions: both partners purified

binding result: binds
B1: GST-tagged Yra1p (natural protein, S. cerevisiae, UniProt Q12159 1-226, looked up)
chain: MSANLDKSLDEIIGSNKAGSNRARVGGTRGNGPRRVGKQVGSQRRSLPNRRGPIRKNTRAPPNAVARVAKLLDTTREVKVNVEGLPRDIKQDAVREFFASQVGGVQRVLLSYNERGQSTGMANITFKNGELARRAVERFNGSPIDGGRSRLRLNLIVDPNQRPVKSLADRIKAMPQKGGNAPRPVKRGPNRKAAMAKSQNKPKREKPAKKSLEDLDKEMADYFEKK
notes: Yra1p, essential mRNA export factor, S. cerevisiae; also called GST-Yra1p
